Where no end group is shown, it is not given here.
Columns and labels:
[1] = biological target: T1, DFP-treated human neutrophil cathepsin G (Homo sapiens, UniProt P08311); assay: ELISA binding to DFP-treated cathepsin G; settings: FIG. 3B, 10 μg/ml, corrected for non-specific binding to BSA
T1 sequence (P08311 21-243 limits assumed): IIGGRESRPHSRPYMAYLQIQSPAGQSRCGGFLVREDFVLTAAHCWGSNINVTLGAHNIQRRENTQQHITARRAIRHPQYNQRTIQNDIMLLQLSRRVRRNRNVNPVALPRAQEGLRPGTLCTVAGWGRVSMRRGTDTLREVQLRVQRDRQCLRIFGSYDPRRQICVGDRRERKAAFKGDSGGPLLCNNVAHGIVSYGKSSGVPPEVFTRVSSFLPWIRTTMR
Method: (§1) Plastic microtiter wells were coated overnight at 4° C. with 100 μls of antigens appropriately diluted in PBS. Plates were washed 3× with approximately 300 μls PBS/well. Any remaining reactive sites were blocked by adding 200 μls 1% BSA in PBS/well and incubating for 1 hr at 37° C. The plates were again washed 3× with approximately 300 μls PBS/well. The rabbit anti-human AAT and HSA polyclonal antibodies were diluted 1/40,000 with PBS containing 0.05% Tween-20. 50 μls of this diluted primary antibody was added/appropriate well. The plate was again incubated for 1 hr at 37° C., then washed 3× with approximately 300 μls PBS/well. 50 μls of an appropriately diluted secondary antibody (goat anti-rabbit IgG diluted 1/16,000) was added/well. The plates were again incubated for 1 hr at 37° C., then washed 5× with approximately 300 μls PBS/well. 50 μls of color developing ortho-phenylenediamine (OPD) solution was added/well. The plates were incubated for 30 min at 37° C. The reaction was finally stopped by the addition of 50 μls/well of 4.5M sulfuric acid and read at 492 nm.
(§2) An ELISA was also developed to quantitate the potential binding affinity of various antigens for AAT (SEQ ID NO:1) and/or SPAAT (SEQ ID NO:4). […]

[2] = biological target: T2, DFP-treated human neutrophil elastase (Homo sapiens, UniProt P08246); assay: ELISA binding to DFP-treated HNE; settings: FIG. 3A, 10 μg/ml, corrected for non-specific binding to BSA
T2 sequence (P08246 30-247 limits assumed): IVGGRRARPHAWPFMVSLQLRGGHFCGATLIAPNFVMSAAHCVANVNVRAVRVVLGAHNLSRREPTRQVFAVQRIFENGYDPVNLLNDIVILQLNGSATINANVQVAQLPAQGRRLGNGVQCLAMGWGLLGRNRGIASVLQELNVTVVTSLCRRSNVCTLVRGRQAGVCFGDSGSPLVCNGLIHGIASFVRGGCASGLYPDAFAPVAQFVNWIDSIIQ
Method: as §1, §2

[3] = biological target: Chymotrypsin (Bos taurus, UniProt P00766); assay: Serine protease assay with p-nitroanilide substrate, chymotrypsin; type: biochemical
Method: (§3) Serine protease assays were performed using p-nitroanalide amide substrates. Trypsin activity was assayed by using Benzyl-PHE-VAL-ARG-PNA (0.5 mg/ml). Chymotrypsin activity was assayed by using SUC-(ALA)2 -PRO-PHE-PNA (SEQ ID NO:5) (10 mg/ml in DMSO). Elastase activity was assayed by using SUC-(ALA)3 -PNA (10 mg/ml in DMSO). The dilution of each of these enzymes required to produce a change in absorbance of approximately 0.4 after a 15 min incubation at 37° C. was initially determined. The complete reaction mixture contained 10 μls of this enzyme dilution plus 100 μls of the appropriate above substrate and 0-50 uls of the indicated concentration of inhibitor or TBS to maintain constant volume. Trypsin, chymotrypsin, and HNE assays were incubated at 37° C. for 15 min, while pancreatic elastase assays were incubated at 37° C. for 1.5 min. The reaction was terminated by the addition of a sufficient quantity of ice cold TBS to bring each assay up to a final volume of 1 ml. The absorbance of the p-nitroaniline produced was measured against a distilled water blank at 410 nm on a Hitachi model 100-40 spectrophotometer. Percent inhibition was calculated as: 100-[(A1 E+I/A1 E)×100].

[4] = biological target: T3, HNE (human neutrophil elastase) (Homo sapiens, UniProt P08246); assay: Serine protease assay with p-nitroanilide substrate, HNE; type: biochemical
T3 sequence (P08246 30-267): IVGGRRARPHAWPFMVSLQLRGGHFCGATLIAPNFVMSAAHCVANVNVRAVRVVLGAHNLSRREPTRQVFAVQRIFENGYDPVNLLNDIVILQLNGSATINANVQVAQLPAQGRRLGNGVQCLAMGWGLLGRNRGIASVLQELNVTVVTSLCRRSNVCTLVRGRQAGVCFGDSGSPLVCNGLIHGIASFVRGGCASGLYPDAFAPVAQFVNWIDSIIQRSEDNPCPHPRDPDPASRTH
Method: as §3

[5] = biological target: T4, Trypsin (Bos taurus, UniProt P00760); assay: Serine protease assay with p-nitroanilide substrate, trypsin; type: biochemical; settings: FIG. 2, preliminary enzyme kinetic experiments, desalted SPAAT preparations
T4 construct: gene PRSS1
T4 sequence (P00760 24-246): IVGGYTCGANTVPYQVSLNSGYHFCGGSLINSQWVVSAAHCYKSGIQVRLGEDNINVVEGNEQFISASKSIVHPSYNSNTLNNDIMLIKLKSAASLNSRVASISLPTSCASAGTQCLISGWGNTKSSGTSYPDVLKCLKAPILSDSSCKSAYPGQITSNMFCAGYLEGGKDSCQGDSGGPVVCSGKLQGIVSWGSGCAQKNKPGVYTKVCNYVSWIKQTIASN
Method: as §3

[6] = biological target: Pancreatic elastase (Homo sapiens, UniProt Q9UNI1); assay: Serine protease assay with p-nitroanilide substrate, pancreatic elastase; type: biochemical; settings: FIG. 2, preliminary enzyme kinetic experiments, desalted SPAAT preparations
Chain of Pancreatic elastase (Q9UNI1 19-258): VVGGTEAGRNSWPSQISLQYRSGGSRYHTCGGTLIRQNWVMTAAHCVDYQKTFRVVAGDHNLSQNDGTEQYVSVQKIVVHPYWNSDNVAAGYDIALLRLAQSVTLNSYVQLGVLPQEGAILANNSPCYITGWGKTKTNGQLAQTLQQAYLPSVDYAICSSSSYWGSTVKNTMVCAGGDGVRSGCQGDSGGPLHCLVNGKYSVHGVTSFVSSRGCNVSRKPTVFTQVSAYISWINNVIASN
Method: as §3

[7] = biological target: human neutrophil elastase (active enzyme) (human) (UniProt P08246)
[8] = biological target: Chymotrypsin; assay: enzyme inhibition kinetics with chymotrypsin, p-nitroanilide substrate
[9] = FIG. 2, preliminary enzyme kinetic experiments, desalted SPAAT preparations

For “α1 Antitrypsin (AMFLEAIPMSIPPEVKFNKPFVFLMIEQNTKSPLFMGKVVNPTQK) [AAT]”, the “binding to DFP-treated cathepsin G” value [1] was “bound” and the “binding to DFP-treated HNE” value [2] was “bound”.

Work on “placental SPAAT: SPAAT isolated from human placenta, associated with collagen in the placental material (MFLEAIPMSIPPQVKFNKPFVFLMIEQNTKSPLFMGKVVNPTQK)” yielded a Ki ([3]; chymotrypsin as the subject enzyme) of 920 nM.

In the case of “SPAAT: 44-residue C-terminal fragment of α1 antitrypsin (MET-351 to LYS-394); desalted preparations isolated from human placenta (MFLEAIPMSIPPQVKFNKPFVFLMIEQNTKSPLFMGKVVNPTQK)”, the “inhibition of chymotrypsin (rank order of inhibition)” value [3, 9] is reported as “chymotrypsin>HNE>pancreatic elastase”, the “KI relative to Km, competitive inhibitor of chymotrypsin” value ([3]; preliminary calculations from inhibitor concentrations required to totally inhibit chymotrypsin) is reported as ~ 1/10 and the “inhibition of HNE activity (compared with native AAT)” value [4, 9] is reported as “almost as well as native AAT”. For the same molecule, the effect on trypsin [5] was “no effect”, the “binding to DFP-treated cathepsin G” value [1] was “bound” and the “binding to DFP-treated HNE” value [2] was “bound”. The “inhibition of pancreatic elastase (rank order of inhibition)” value [6] was “chymotrypsin>HNE>pancreatic elastase”.

In the case of “MFLEAIPMSIPPQVKFNKPFVFLMIEQNTKSPLFMGKVVNPTQK [chemically synthesized SPAAT]”, the “effectiveness as inhibitor of HNE relative to SPAAT isolated from placenta, mole-for-mole” value ([4]; ratio of the KI values) is reported as “eight-fold less effective”.

Molecule MFLEAIPMSIPPQVKFNKPFVFLMIEQNTKSPLFMGKVVNPTQK [chemically synthesized SPAAT] has an inhibitory effectiveness, mole-for-mole [7] of 8 fold and a Ki [8] of 7500 nM.

MFLEAIPMSIPPQVKFNKPFVFLMIEQNTKSPLFMGKVVNPTQK [SPAAT isolated from human placenta (44-residue C-terminal fragment of alpha1 antitrypsin)] gave a Ki [8] of 920 nM.

Source: patent publication US5668107A, “Compositions and methods for inhibiting elastase” (The UAB Research Foundation, priority 1995, dated 1997)
